Measurements taken from the Immune Epitope Database (IEDB).
One block for each sequence: values may come before it.

Experiments:
[1] = target: HLA-A*03:01; assay: IEDB peptide-MHC binding, purified MHC/competitive/fluorescence; filed as Kd, often an IC50 or EC50 that approximates it; ≥ and ≤ were set here for values at or beyond the usual limits of such assays; conditions: source organism: Pseudomonas aeruginosa UCBPP-PA14
[2] = target: HLA-B*27:05; assay: as above; conditions: source organism: Pseudomonas aeruginosa UCBPP-PA14
[3] = target: HLA-B*15:01; assay: as above; conditions: source organism: Pseudomonas aeruginosa UCBPP-PA14
[4] = target: HLA-B*18:01; assay: as above; conditions: source organism: Pseudomonas aeruginosa UCBPP-PA14
[5] = target: HLA-A*69:01; assay: as above
[6] = target: HLA-B*07:02; assay: as above; conditions: source organism: Pseudomonas aeruginosa UCBPP-PA14
[7] = target: HLA-A*11:01; assay: as above; conditions: source organism: Pseudomonas aeruginosa UCBPP-PA14
[8] = target: HLA-B*40:01; assay: as above; conditions: source organism: Pseudomonas aeruginosa UCBPP-PA14
[9] = target: HLA-A*26:01; assay: as above; conditions: source organism: Pseudomonas aeruginosa UCBPP-PA14
[10] = target: HLA-A*02:50; assay: as above; conditions: source organism: Pseudomonas aeruginosa UCBPP-PA14
[11] = target: HLA-B*35:01; assay: as above; conditions: source organism: Pseudomonas aeruginosa UCBPP-PA14
[12] = target: HLA-A*30:01; assay: as above
[13] = target: HLA-B*46:01; assay: as above; conditions: source organism: Pseudomonas aeruginosa UCBPP-PA14
[14] = target: HLA-A*02:19; assay: as above; conditions: source organism: Pseudomonas aeruginosa UCBPP-PA14
[15] = target: HLA-B*58:01; assay: as above; conditions: source organism: Pseudomonas aeruginosa UCBPP-PA14
[16] = target: HLA-A*02:12; assay: as above; conditions: source organism: Pseudomonas aeruginosa UCBPP-PA14
[17] = target: HLA-A*02:01; assay: as above; conditions: source organism: Pseudomonas aeruginosa UCBPP-PA14
[18] = target: HLA-A*01:01; assay: as above; conditions: source organism: Pseudomonas aeruginosa UCBPP-PA14
[19] = target: HLA-A*02:06; assay: as above; conditions: source organism: Pseudomonas aeruginosa UCBPP-PA14
[20] = target: HLA-A*02:16; assay: as above; conditions: source organism: Pseudomonas aeruginosa UCBPP-PA14
[21] = target: HLA-A*24:02; assay: as above; conditions: source organism: Pseudomonas aeruginosa UCBPP-PA14
[22] = target: HLA-A*02:11; assay: as above; conditions: source organism: Pseudomonas aeruginosa UCBPP-PA14
[23] = target: HLA-A*31:01; assay: as above; conditions: source organism: Pseudomonas aeruginosa UCBPP-PA14
[24] = target: HLA-A*68:02; assay: as above; conditions: source organism: Vaccinia virus Copenhagen
[25] = target: HLA-B*39:01; assay: as above; conditions: source organism: Vaccinia virus Copenhagen
[26] = target: HLA-B*15:09; assay: as above
[27] = target: HLA-B*15:17; assay: as above; conditions: source organism: Vaccinia virus Copenhagen
[28] = target: HLA-B*27:05; assay: IEDB peptide-MHC binding, purified MHC/direct/fluorescence; filed as Kd, often an IC50 or EC50 that approximates it; ≥ and ≤ were set here for values at or beyond the usual limits of such assays
[29] = target: HLA-B*18:01; assay: as above
[30] = target: HLA-A*69:01; assay: as above; conditions: source organism: Camelpox virus M-96
[31] = target: HLA-B*07:02; assay: as above
[32] = target: HLA-A*11:01; assay: as above
[33] = target: HLA-B*40:01; assay: as above
[34] = target: HLA-B*57:01; assay: as above
[35] = target: HLA-B*48:01; assay: as above
[36] = target: HLA-B*44:02; assay: as above; conditions: source organism: Camelpox virus M-96
[37] = target: HLA-B*58:01; assay: as above
[38] = target: HLA-A*01:01; assay: as above
[39] = target: HLA-A*26:03; assay: as above; conditions: source organism: Variola virus
[40] = target: HLA-A*31:01; assay: as above
[41] = target: HLA-A*03:01; assay: as above; conditions: source organism: Bacillus anthracis
[42] = target: HLA-B*15:01; assay: as above; conditions: source organism: Bacillus anthracis
[43] = target: HLA-A*30:01; assay: as above; conditions: source organism: Bacillus cereus 03BB108
[44] = target: HLA-B*46:01; assay: as above; conditions: source organism: Bacillus anthracis
[45] = target: HLA-B*38:01; assay: as above; conditions: source organism: Bacillus cereus 03BB108
[46] = target: HLA-A*02:01; assay: as above; conditions: source organism: Bacillus anthracis
[47] = target: HLA-B*15:17; assay: as above; conditions: source organism: Bacillus anthracis
[48] = target: HLA-B*51:01; assay: as above; conditions: source organism: Bacillus anthracis
[49] = source organism: Pseudomonas aeruginosa UCBPP-PA14
[50] = source organism: Vaccinia virus Copenhagen
[51] = source organism: Camelpox virus M-96
[52] = source organism: Bacillus anthracis str. A0488
[53] = source organism: Bacillus anthracis

- Kd [1]: ≥ 20 µM
- Kd [2]: ≥ 20 µM
- Kd [3]: ≥ 20 µM
- Kd [4]: ≥ 20 µM
- Kd [5, 49]: 1.01 µM
- Kd [6]: ≥ 20 µM
- Kd [7]: ≥ 20 µM
- Kd [8]: ≥ 20 µM
- Kd [9]: ≥ 20 µM
- Kd [10]: 0.0053 µM
- Kd [11]: ≥ 20 µM
- Kd [12, 49]: ≥ 20 µM
- Kd [13]: ≥ 20 µM
- Kd [14]: 0.1 µM
- Kd [15]: ≥ 20 µM
- Kd [16]: 0.0022 µM
- Kd [17]: 0.0414 µM
- Kd [18]: ≥ 20 µM
- Kd [19]: 0.0067 µM
- Kd [20]: 0.0016 µM
- Kd [21]: ≥ 20 µM
- Kd [22]: 0.0005 µM
- Kd [23]: ≥ 20 µM
Sequence: FLDDASNSA

Sequence: LEYGANYFL
- Kd [24]: 2.26 µM
- Kd [25]: 3 µM
- Kd [26, 50]: ≥ 20 µM
- Kd [12, 50]: ≥ 20 µM
- Kd [27]: ≥ 20 µM
- Kd [28, 51]: ≥ 20 µM
- Kd [29, 51]: 0.0117 µM
- Kd [30]: 1.6 µM
- Kd [31, 51]: ≥ 20 µM
- Kd [32, 51]: ≥ 20 µM
- Kd [33, 51]: 0.0033 µM
- Kd [34, 51]: ≥ 20 µM
- Kd [35, 51]: 4.39 µM
- Kd [36]: ≥ 20 µM
- Kd [37, 51]: ≥ 20 µM
- Kd [38, 51]: ≥ 20 µM
- Kd [39]: ≥ 20 µM
- Kd [40, 51]: ≥ 20 µM

Sequence: WFREDRSPV
- Kd [26, 52]: ≥ 20 µM
- Kd [5, 52]: ≥ 20 µM
- Kd [41]: ≥ 20 µM
- Kd [28, 53]: ≥ 20 µM
- Kd [42]: ≥ 20 µM
- Kd [29, 53]: 0.145 µM
- Kd [31, 53]: ≥ 20 µM
- Kd [32, 53]: ≥ 20 µM
- Kd [33, 53]: ≥ 20 µM
- Kd [34, 53]: ≥ 20 µM
- Kd [35, 53]: ≥ 20 µM
- Kd [43]: ≥ 20 µM
- Kd [44]: ≥ 20 µM
- Kd [45]: ≥ 20 µM
- Kd [37, 53]: ≥ 20 µM
- Kd [46]: ≥ 20 µM
- Kd [38, 53]: ≥ 20 µM
- Kd [47]: ≥ 20 µM
- Kd [40, 53]: ≥ 20 µM
- Kd [48]: ≥ 20 µM
